Laboratory results reported in PMC7835275.

Tests used:
[1] = target: His-tagged DVB1^G90E, full length, from E. coli (rice (Oryza sativa L.)); assay: native gel or EMSA; Native-PAGE of the purified His-tagged protein, immunoblot with a His-tag antibody; SDS-PAGE beside it
[2] = target: His-tagged DVB1, full length, from E. coli (rice (Oryza sativa L.)); assay: as above

| Substance | stoichiometry N [1] | stoichiometry N [2] |
| --- | --- | --- |
| His-tagged DVB1^G90E, full length, from E. coli (natural protein) | 2 | – |
| His-tagged DVB1, full length, from E. coli (natural protein) | – | 2 |
